# Experimental data: US20110263825A1 (OSAKA UNIVERSITY, published 2011)
# Changes are numbered by the printed parent chain.
# T1: human CD20 antigen (human, UniProt P11836 1-297)
# T1 construct: whole, on cells; also called human CD20 molecule
# T1 sequence (looked up): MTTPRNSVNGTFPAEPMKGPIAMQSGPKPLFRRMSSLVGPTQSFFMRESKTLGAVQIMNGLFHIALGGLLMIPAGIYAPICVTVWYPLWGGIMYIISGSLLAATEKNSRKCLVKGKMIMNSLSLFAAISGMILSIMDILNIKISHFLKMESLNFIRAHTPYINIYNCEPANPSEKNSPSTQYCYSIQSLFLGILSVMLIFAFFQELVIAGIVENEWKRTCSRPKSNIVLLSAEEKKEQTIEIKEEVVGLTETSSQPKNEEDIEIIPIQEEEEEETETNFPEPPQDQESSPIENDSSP
# B1: humanized antibody 1782 clone ff (antibody, V domains shown)
# VH: QVQLVQSGAEVKKPGASVKVSCKASGYTFTSYWMHWVKQAPGQGLEWIGYITPSTGYTDYNKKFKDKATLTADRSSSTAYMELSSLRSEDTAVYYCARSGPYFDVWGAGTTVTVSS
# VL: DILLTQSPATLSVSPGERATLSCRASQNIGTSIHWYQQRPGQSPRLLIKYASESFSGIPSRFSGSGSGTDFTLTINSLQPEDIADYYCQQSNSWPFTFGSGTKLEIK
# notes: kg1 constructs (C kappa / C gamma1 vector); also called h1782ff; hz1782-ff14
# B2: humanized antibody 1782 clone fv (antibody, V domains shown)
# VH: B1 VH with V11L
# VL: B1 VL
# notes: kg1 constructs; also called h1782fv; hz1782-fv02
# B3: humanized antibody 1782 clone sf (antibody, V domains shown)
# VH: B1 VH
# VL: B1 VL with V13L, I29V, I33L, R39K, S54R, S56T, N76S, Q79E, I83F
# notes: kg1 constructs; also called h1782sf; hz1782-sf23
# B4: humanized antibody 1782 clone ss (antibody, V domains shown)
# VH: B1 VH with K62Q, K65Q, D66G
# VL: B1 VL with V13L, I29V, I33L, R39K, S54R, S56T, N76S, Q79E, I83F
# notes: kg1 constructs; also called h1782ss; hz1782-ss21
# Biological target: T1, human CD20 antigen
# Assay: Scatchard analysis on Raji cells, FITC-labeled Protein A detection; repeated from Table 8
row,Molecule,Kd [nM]
1,B1,4.38
2,B2,6.76
3,B3,7.43
4,B4,8.64

# Biological target: T1, human CD20 antigen
# Assay: Scatchard analysis on Raji cells, FITC anti-mouse IgG detection
row,Molecule,Kd [nM]
1,mouse antibody 2B8,6.79

# Biological target: T1, human CD20 antigen
# Assay: Scatchard analysis on Raji cells, FITC-labeled Protein A detection
row,Molecule,Kd [nM]
1,B1,4.38
2,B2,6.76
3,B3,7.43
4,B4,8.64
